Experimental findings from US20240210403A1 (MARTELL DIAGNOSTIC LABORATORIES, published 2024) are described below.

The target in this experiment is T1, human HER2 protein present in serum samples (human, UniProt P04626 23-652).
T1 construct: extracellular domain; Endogenous analyte in human sera; also called sHER2; serum HER2
Put plainly: sandwich ELISA, 1B7 capture/1G5-biotin detection. (An ELISA detects its analyte on a solid surface through an enzyme-linked reagent.)

Procedure: Standards, controls and samples were pipetted into the wells, and any HER2 present was bound by the immobilized antibody. […] Following a wash to remove unbound conjugate, a substrate solution was added to the wells, and color developed in proportion to the amount of HER2 bound. After color development was stopped, the absorbance was measured using a microplate spectrophotometer.
Sample Buffer/Antibody Diluent (10% Casein in 1×PBS) was prepared (˜40 mL/plate). After incubation, plates were washed on a plate washer as described herein. 245 μL of Sample Buffer then was pipetted into a labeled snap-cap tube for each patient sample to be tested, as well as for each standard and control. A 1:50 dilution of each patient sample as well as each standard and control was generated (e.g., 5 μL of each sample in 95 μL of Sample Buffer). 100 μL of each sample (patient, standard, control, and blank (i.e., 100 μL of Sample Buffer)) was pipetted into their respective wells as indicated on the plate map. The wells were covered with an adhesive plate cover, placed in a microplate shaker (Corning LSE Digital Microplate Shaker) at 500 rpms for 1 min, and then incubated at room temperature for 1 hour.
After incubation, plates were washed on a plate washer as described herein. […] 100 μL was pipetted into each well and the plate was covered with an adhesive plate cover. […]

B1: 1B7 anti-HER2 rabbit monoclonal antibody (antibody, V domains shown)
VH: QSVEESGGRLVTPGTPLTLTCTVSGIDLSDYAMGWVRQAPGKGLEYIGIISSSGNTHYARWARGRFTISKTSSTTVDLKMTSLTTEDTATYFCARNYPGYANYALWGQGTLVTVSS
VL: RIVMTQTPASVSAAVGGTVTIKCQASESISNWLSWYQQKPGQPPKLLIYRASTLASGVPSRFSGSGSGTEYTLTISDLECADAATYYCQQDYIYNDIDNAFGGGTEVVVKG
notes: Recombinant rabbit IgG (gamma 1 heavy, kappa 1 light) expressed in 293F cells; Used as the coated capture antibody; also called Capture Antibody (1B7; Yurogen)
For B1, the binding result was “binds”.
